Consider two molecules from publication doi:10.1101/2021.01.13.426390.

Test [1] addresses T1, His6-AGR2, purified recombinant, O95994.
T1 chain: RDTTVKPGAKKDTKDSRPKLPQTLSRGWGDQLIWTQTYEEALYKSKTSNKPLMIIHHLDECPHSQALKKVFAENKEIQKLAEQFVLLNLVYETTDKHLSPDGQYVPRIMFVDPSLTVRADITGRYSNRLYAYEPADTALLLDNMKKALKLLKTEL
Put plainly: non-reducing SDS-PAGE and immunoblot of disulfide-bonded complexes. As to conditions: remark: other sources report otherwise. (A western blot detects proteins with antibodies after separation by electrophoresis.)

Test [2] addresses T2, wild type AGR2, enforced expression, O95994.
T2 chain: T1 chain
The description is as above. The following applies: remark: other sources report otherwise.

B1: His6-AGR2, purified recombinant, O95994 21-175 (natural protein)
chain: T1 chain
For orientation: stoichiometry N means a count of units in the complex or per binding partner. As to B1, in test [1], the stoichiometry N is 2.

B2: wild type AGR2, enforced expression, O95994 21-175 (natural protein)
chain: T1 chain
B2: the stoichiometry N in test [2] was 2.
